{
  "source": "the nanobody polyreactivity screen of Harvey et al. (2022)",
  "data": [
    {"test": "yeast display, Sf9 membrane polyspecificity reagent, FACS + sequencing; frameworks hold sequencing errors", "method_in_brief": "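In a synthetic yeast display library (Saccharomyces cerevisiae BJ5465), nanobody expression was induced with galactose for 36–48 hours. FACS gates were set low and high (top ~1%) using anti-HA fluorescence for expression and streptavidin fluorescence for binding of the Sf9 membrane reagent. Each polyreactivity label is drawn from the gate of origin.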", "values": [
      {"sequence": "QVQLVESGGGLVQAGVSLRISCAASGSTFRGYVMGWYRPAPGKERELVAAISRSGTSTYYADSVKGRFTISRDNAKNTVYLQINSLKPEDTAVYYCAAQLYGHGEDYWGQGTQVTVSS", "polyreactivity (PSR sort gate)": "high polyreactivity"},
      {"sequence": "QVQLVESGGGLVQAGVSLRLICAASGLTFQYNAMGWYRQAPGKEREMVASINSGGSTDYADSVKGRFTISRDNAKNTVYLQMNSLKPEDTAVYYCATSGYWYSASYGYEYWGQGTQVTVSS", "polyreactivity (PSR sort gate)": "low polyreactivity"},
      {"sequence": "QVQLVESGGGLVQAGVSLRLSCAASGFIFYRYAMGWYRQAPRKERELVAAISWGGGSTTYYADSVKGRFTISRYNAKNTVYLQMNSLKPEDTAVYYCAKLRYPYLFWDDSEYWGQGTQVTVSS", "polyreactivity (PSR sort gate)": "low polyreactivity"},
      {"sequence": "QVQLVESGGGLVQAGVSLRLSCAASGFSFAKNAMAWYRQAPGKERELVADITYSGGSTYADSVKGRFTISLDNAKNTVYFQMNSLKPEDTAVYYCAADSRRRSCYDYWVQGTQVTVSS", "polyreactivity (PSR sort gate)": "low polyreactivity"},
      {"sequence": "QVQLVESGGGLVQAGVSLRLSCAASGGTFSRNAMGWYRQAPGKERELVAAINSSGVSTSYADSVKGRFTISRDNAKNTVYLQMNSLKPEDTAVYYCAAETSSAEVDYWGQGTQVTVSS", "polyreactivity (PSR sort gate)": "low polyreactivity"},
      {"sequence": "QVQLVESGGGLVQAGVSLRLSCAASGIFRRYAMGWYIQAPGKERELVAAISSNGGSTYYADSVKGRFTISRDNAKNTVYLQMNSLKPEDTAVYYCNADVYVWNYYYWGQGTQVTVSS", "polyreactivity (PSR sort gate)": "high polyreactivity"},
      {"sequence": "QVQLVESGGGLVQAGVSLRLSCAASGLIFVFYAMGWYRQAPGKERELVAAISRSGTSTYADSVKGRFTISRDNAKNTVYLQMNSLKPADTAVYYCNAYRYYSPYGYWGQGTQVTVSS", "polyreactivity (PSR sort gate)": "low polyreactivity"},
      {"sequence": "QVQLVESGGGLVQAGVSLRLSCAASGRIFNGNAMGWYRQAPGIEWELVATITRGGGSTYYADSVKGRFTISRDNAKKTVYLQMNSLKPEDTAVYSCNVPPPTQVRYRSDHWGQGTQVTVSS", "polyreactivity (PSR sort gate)": "low polyreactivity"},
      {"sequence": "QVQLVESGGGLVQAGVSLRLSCAASGRTFALNVMGWYRQAPGKERELVAAISRSGGSTYYAESVKGRFTISRDNAKNTVYLQMNSLKPEDTAVYYCAAATHYQSYNRRDYWGQGTQVTVSS", "polyreactivity (PSR sort gate)": "high polyreactivity"},
      {"sequence": "QVQLVESGGGLVQAGVSLRLSCAASGRTFEYNAMGWYRQAPGKERELVATIRYSGTSTYADSVKGRFTISRDNAKNTVYLQMNSLKPEDSAVYYFAKQVRYYGYKYNYWGLGTQVTVSS", "polyreactivity (PSR sort gate)": "high polyreactivity"},
      {"sequence": "QVQLVESGGGLVQAGVSLRLSCAASGRTFFLYAMGWYRQAPGKERELVARISTSGGGTYYADSVKGRFTISRDNAKYTVYLQMNSLKPEDTAVYYCAARTFRGQRRAGGYDYWGQGTQVTVSS", "polyreactivity (PSR sort gate)": "high polyreactivity"},
      {"sequence": "QVQLVESGGGLVQAGVSLRLSCAASGRTFRHNVMGRYRQAPGKERELVAAISYSGGSTHYADSVKGRFTISRDNAKNTVYLQMNSQKPEDTAVYYCNRYSYDSHFLYPFRGHDYWGQGTQVTVSS", "polyreactivity (PSR sort gate)": "low polyreactivity"},
      {"sequence": "QVQLVESGGGLVQAGVSLRLSCAASGRTFRRYVMGWNRQAPGKERELVASITRGTGTDYADSVKGRFTISRDNRMNTVYLQMNSLKPEDTAVYYGNVKFGQPIYGEFDYWGQGTQVTVSS", "polyreactivity (PSR sort gate)": "low polyreactivity"},
      {"sequence": "QVQLVESGGGLVQAGVSLRLSCAASGRTFYGNAMGWYRQAPGKERELVAAISRSGGRTYYADSVKGRFTISRDNAKNTVYLQMNSLKPEDTAVYYCAKDYYYPSHTYGYWGQGTQVTVSS", "polyreactivity (PSR sort gate)": "high polyreactivity"},
      {"sequence": "QVQLVESGGGLVQAGVSLRLSCAASGSIFGFNAMGWYRQAPGKEWELVAAINNGGSTNYADSVKGRFTISRDNAKNTVYLQMNSLKPEDTAVYYFAAERWFYRSKFDYWGQGTQVTVSS", "polyreactivity (PSR sort gate)": "high polyreactivity"},
      {"sequence": "QVQLVESGGGLVQAGVSLRLSCAASGSTFRKYTMGWSRQAPGKERELVAAITYRGDRTYYADSVKGRFTISRDNAKNTVFIQMNSLIPEDTAVYYCASTSYYGAVWYIFYYWGQGTQVTVSS", "polyreactivity (PSR sort gate)": "high polyreactivity"},
      {"sequence": "QVQLVESGGGLVQAGVSLRLSCAASGSTFRRYAMGWYRQAPGKAWEISTSDGSTYYADSVKGRFTISRDNAKNTVYLQMNSLKPEDTAVYYCAADGYRQLIEDITDDYWGQGTQVTVSS", "polyreactivity (PSR sort gate)": "low polyreactivity"},
      {"sequence": "QVQLVESGGGLVQAGVSLRLSCASSGIIFPDYAMGWYRQAPGKERELVAAITRSGGRTFYADSVKGRFTISRDTAKNSVYLQMKSLKPEDTAVYYCAVSYSYLYYYWGQGTQVTVSS", "polyreactivity (PSR sort gate)": "high polyreactivity"},
      {"sequence": "QVQLVESGGGLVQAGVSLRLSCPAGGSTFYKYVMGWYRQAPGKEREVVAAISVNGGDTYYADSVKGRFTISRDNAKNTVSVQMNSLNPEDTAVYYCAAERGVDLSARYGDNDNWGQGTQVTVTS", "polyreactivity (PSR sort gate)": "low polyreactivity"},
      {"sequence": "QVQLVESGGGLVQAGVSLRLSCSASGLTFRPNAIGWYRQAPGKERELVAAITWSGGRTYYADSVKGRFTISRDNATNTVYFQMNSLKPEDTAVYYCAAVPLRNRWPNSWPALDYWGQVTQVTVSS", "polyreactivity (PSR sort gate)": "high polyreactivity"},
      {"sequence": "QVQLVESGGGLVQALGSLRLSCAASGSIFQRNALGWYRLAPGKERELVAAISRSGGSTYYADSVKGRFTISRDNAKNTVYCQMNSLQPEDTAVYYCAAVHFFWGYDYWGQGTQVTVSS", "polyreactivity (PSR sort gate)": "high polyreactivity"},
      {"sequence": "QVQLVESGGGLVQARCSLRLSCDASGSIFPHYAMGWYRQAPGKEREFVATISGSTGRTYYADSVKGRFTISRDYAKNTVYLQMNSLKTEDTAVYYCATSVGYYLPPIKYDYWGQGTQVTVSS", "polyreactivity (PSR sort gate)": "low polyreactivity"},
      {"sequence": "QVQLVESGGGLVQARGRLRLSFAASGSIFSTNAMGWYRQATGKERELVAAISSSDGITYYADSVKGRFTISRDNAMNTVYLQMNSLKPEDTAVYYCAAEYAYGIEESSAYNIYFYWGQGTQVTVSS", "polyreactivity (PSR sort gate)": "high polyreactivity"},
      {"sequence": "QVQLVESGGGLVQARGSHRLSCAASGRTFVTNAMGWYRQAPGKERELVAAIRWSSDSTYYADSVKGRFTISRVIAKNTVYLQMNSLKPEYTAVYYCAARIPKQQGYGYWGQGTQVTVSS", "polyreactivity (PSR sort gate)": "high polyreactivity"},
      {"sequence": "QVQLVESGGGLVQARGSLRLICAASGRIFPDYGMGWYRQAPGKESEFDAVIDWIGVSTYYADSVKGRFTISRDNAKNTVYLQINSLKPEDTAVYYCNAEYAFPSPKSSLDYWGQGTQVTVSS", "polyreactivity (PSR sort gate)": "low polyreactivity"},
      {"sequence": "QVQLVESGGGLVQARGSLRLSCAACGSTFYWYPLGWSRQAPGTERELVATLTSVGRTNYADSVKGRFTISRDNAKNSVYLQMNRLNPEDTAVYYCAASKARWPRGGSRGGMGYWGQGTQVTVSS", "polyreactivity (PSR sort gate)": "high polyreactivity"},
      {"sequence": "QVQLVESGGGLVQARGSLRLSCAASAFIIPVYTIGWYRQAPGKERELVAAITQIGGSTHYADSVKGRFTISRANAKNTVYLQMNSLKPEDTAVYYCAVDYDSYWYGTYVNEYDYWGLGTQVTVSS", "polyreactivity (PSR sort gate)": "low polyreactivity"},
      {"sequence": "QVQLVESGGGLVQARGSLRLSCAASGFTFERYTMGWYRQAPGKERELVATISRRSGRTSYADSVKGRFTISRDNEMNSVYLQMNSLKPEDTAVYYCAVDDAYPDRYDYWGQGPQVTVSS", "polyreactivity (PSR sort gate)": "high polyreactivity"},
      {"sequence": "QVQLVESGGGLVQARGSLRLSCAASGIIFLVNDMGWYRQAPGKVRELVAAITYSGDGTFYADSVKGRFTISRDNAKNTVYLQMNSLKPEDTAVYYCAADLPESPESYYHTDDYWGQGTQGTVSS", "polyreactivity (PSR sort gate)": "low polyreactivity"},
      {"sequence": "QVQLVESGGGLVQARGSLRLSCAASGITFNRYVMGWYRQAPGKERELVAAISRTGGSTYYADSVKGRFTISRDNAKNTDFLQMNSLKPEDTAVYYCAAATSPGIYDYWGQGTQVTVSS", "polyreactivity (PSR sort gate)": "high polyreactivity"},
      {"sequence": "QVQLVESGGGLVQARGSLRLSCAASGITFSRNVMGWYRQAPGKERELVAAISRSGGRTYYADSVKGRFTISRDNAKNTVYLQMNSLKPEVTAVYYCNRDIGGTTVLDDYCGQGTQVTVSS", "polyreactivity (PSR sort gate)": "low polyreactivity"},
      {"sequence": "QVQLVESGGGLVQARGSLRLSCAASGRIFRKYDMGWYRQAPGKERELVAAISGTGITYYADSVKGRFTISRDNAKNTVYLQMNSMKPEDTAVYYCARGSKPRAWSWAYPSDTSIYDYWGQGTQVTVSS", "polyreactivity (PSR sort gate)": "low polyreactivity"},
      {"sequence": "QVQLVESGGGLVQARGSLRLSCAASGRIFWSNAMGWYRQAPGKERELVAAISYSGDSTYYADSVKGRFTISRDNAKNTVYIQMKSLKPEDTAVYYCTAVGHRSYRYDYWGQGTQVTVSS", "polyreactivity (PSR sort gate)": "high polyreactivity"},
      {"sequence": "QVQLVESGGGLVQARGSLRLSCAASGRTFGPYAMGWYRQAPGKERELVAAISSSEGSTYYADSVKGRFTISRDIAKYSVYLQMNSMKPEDTAVYYCNARYYLWSTTRWYGYDYWGQGTQVTVSS", "polyreactivity (PSR sort gate)": "high polyreactivity"},
      {"sequence": "QVQLVESGGGLVQARGSLRLSCAASGSIFLYYAMGWYRQAPGKEREFVAAISIIGGSTYYADSVKGRFTISRDNAKNTVYLQMNSLKPEDTAVYYCAADYYYHRWTSVEGGYWGQGTQVTVSS", "polyreactivity (PSR sort gate)": "low polyreactivity"},
      {"sequence": "QVQLVESGGGLVQARGSLRLSCAASGSIFRSYAMGWYRQAPGKERELVAAITSGGNTYYADSVKGRFTISRDNAKNTVYLQMNSLKPEDTAVYYCAKRRYNYLSDYDYWGQGTQVTVSS", "polyreactivity (PSR sort gate)": "low polyreactivity"},
      {"sequence": "QVQLVESGGGLVQARGSLRLSCAASGSIFYYNTMGSDRQAPGKEREFVAAITYSGGSTYYSDSVKGRFTISRDKAKKTVYLLMNSLKPEDTAVYYCAAYIFYFSGGLNNRGTRGYWGQGTQVTVSS", "polyreactivity (PSR sort gate)": "low polyreactivity"},
      {"sequence": "QVQLVESGGGLVQARGSLRLSCAASGSTFGRYVMGWYRQAPGKERELVAAISKNAGSTYYADSVKGRFTISRDNAKNTVYLQMTSLKPEDTAVYYCAADWRTKGYDSLGQGTQVTVSS", "polyreactivity (PSR sort gate)": "high polyreactivity"},
      {"sequence": "QVQLVESGGGLVQARGSLRLSCAASGSTFPYYAMGWYRQAPGKARELVAAITSSTGRTYYADSVKGRFTISRDNAKNTVYLQMNSLKPEDTAVYYSNAEVYSDPYNDHDYWGQGTQVTVSS", "polyreactivity (PSR sort gate)": "low polyreactivity"},
      {"sequence": "QVQLVESGGGLVQARGSLRLSCAASGSTFVQNAMGWYRQAPGKEREFVAAIRVSGDNTYYADSVKGRFTISLDNAKNTVYLQMNSLKPEDTAVYYFAATGTFVGSVDYWGQGTQVTVSS", "polyreactivity (PSR sort gate)": "low polyreactivity"},
      {"sequence": "QVQLVESGGGLVQARGSLRLSCAASGSTLRRYAMGWYRQAPGKERELVAAISSSGGSTYYADSVKGRFTISRDNAKNTVYLQMNSLKPEDTAVYYCAALVRKRVNTYQGYYPGDYWGQGTQGTVSS", "polyreactivity (PSR sort gate)": "high polyreactivity"},
      {"sequence": "QVQLVESGGGLVQARGSLRLSCAASGSTVGYNAMGWYRQAPGKERELVAAISGNGGSTYADSVKGRFTISRDNAKNTVYLQMNSLKPEDTAVYYCAAVQYGYGLASDSIFDYWGQGTQVTVSS", "polyreactivity (PSR sort gate)": "high polyreactivity"},
      {"sequence": "QVQLVESGGGLVQARGSLRLSCAASVITFRHNTMGWYRQAPGKERELVSTNYADSVKGRFTISRDNAKNTVYLQMNSLKQEDTAVYYCNADGTFEYDYWGQGTQVTVSS", "polyreactivity (PSR sort gate)": "low polyreactivity"}
    ]}
  ]
}
